From US20050106100

How the values were obtained:
Ac-VRW˜LTA-Ahxh-Hynic = target: T1, Ac-VRW˜LTA-Ahxh-Hynic (not fully specified)
T1 chain: VRWLTA

[1] = target: T2, Ac-Tic-Cit-G˜Hphe-SA-Ahxh-Hynic
T2 chain: XXGXSA

[2] = target: T3, Ac-PLG˜S(OBn)-LL-Ahxh-Hynic
T3 chain: PLGSLL

[3] = target: T4, Ac-P-Cit-G˜Hphe-Cit-L-Ahxh-Hynic (not fully specified)
T4 chain: PXGXXL

[4] = target: T5, Ac-PLG˜Hphe-YLA-Ahxh-Hynic
T5 chain: PLGXYLA

[5] = target: T6, Ac-PLG˜Hphe-K(Me)2-L-Ahxh-Hynic (not fully specified)
T6 chain: PLGXKL

[6] = target: T7, NLys-NLys-PLG˜Hphe-YL-Ahxh-Hynic
T7 chain: XXPLGXYL

[7] = target: T8, Ac-P-Cit-G˜Hphe-Cha-A-Ahxh-Ac[C14] (not fully specified)
T8 chain: PXGXXA

[8] = target: T9, Ac-PLG˜Hphe-YL-Ambh-Hynic
T9 chain: PLGXYL

Ac-PLG˜LY-Ahxh-Ac[C14] = target: T10, Ac-PLG˜LY-Ahxh-Ac[C14] (not fully specified)
T10 chain: PLGLY

Ac-PL-DAla˜LL-Ahxh-Hynic = target: T11, Ac-PL-DAla˜LL-Ahxh-Hynic (not fully specified)
T11 chain: PLALL

Ac-PLG˜LOL-Ahxh-Hynic = target: T12, Ac-PLG˜LOL-Ahxh-Hynic (not fully specified)
T12 chain: PLGLXL

Ac-PLG˜LYT-Ahxh-Ac[C14] = target: T13, Ac-PLG˜LYT-Ahxh-Ac[C14] (not fully specified)
T13 chain: PLGLYT

Ac-PLG˜L-Cha-Ahxh-Hynic = target: T14, Ac-PLG˜L-Cha-Ahxh-Hynic
T14 chain: PLGLX

[9] = target: T15, Ac-PLG˜Hphe-YLR-Ahxh-Hynic
T15 chain: PLGXYLR

Ac-PLG˜LHL-Ahxh-Hynic = target: T16, Ac-PLG˜LHL-Ahxh-Hynic
T16 chain: PLGLHL

[10] = target: T17, NLys-PLG˜Hphe-YL-Ambh-Hynic
T17 chain: XPLGXYL

[11] = target: T18, Ac-Oic-LG˜LL-Ahxh-Ac[C14] (not fully specified)
T18 chain: XLGLL

Ac-PLG˜LLA-Ahxh-Hynic = target: T19, Ac-PLG˜LLA-Ahxh-Hynic (not fully specified)
T19 chain: PLGLLA

[12] = target: T20, Ac-PL-NLys˜LL-Ahxh-Ac[C14] (not fully specified)
T20 chain: PLXLL

[13] = target: T21, Ac-P-Cit-G˜Hphe-L-Ahxh-Hynic (not fully specified)
T21 chain: PXGXL

[14] = target: T22, Ac-P-Hcit-G˜Hphe-SA-Ahxh-Hynic (not fully specified)
T22 chain: PXGXSA

[15] = target: T23, Ac-PLG˜Hphe-YL-Ahxh-Hynic (not fully specified)
T23 chain: PLGXYL

[16] = target: T24, Ac-PLG˜Hphe-OLA-Ahxh-Hynic
T24 chain: PLGXXLA

Ac-POG˜Hphe-L-Ambh-Hynic = target: T25, Ac-POG˜Hphe-L-Ambh-Hynic
T25 chain: PXGXL

[17] = target: T26, Ac-PLG˜S(OBn)-LL-Ahxh-Ac[C14] (not fully specified)
T26 chain: PLGSLL

[18] = target: T27, Ac-P-Cit-G˜S(OBn)-LA-Ahxh-Ac[C14] (not fully specified)
T27 chain: PXGSLA

[19] = target: T28, Ac-PLG˜Hphe-OL-Ambh-Hynic
T28 chain: PLGXXL

[20] = target: T29, Ac-PLG˜Hphe-RLT-Ahxh-Hynic
T29 chain: PLGXRLT

[21] = target: T30, Ac-P-Cit-G˜Abu-LA-Ahxh-Hynic (not fully specified)
T30 chain: PXGXLA

Ac-PLG˜LL-Ahxh-Ac[C14] = target: T31, Ac-PLG˜LL-Ahxh-Ac[C14] (not fully specified)
T31 chain: PLGLL

[22] = target: T32, Ac-PL-NLys˜Hphe-L-Ahxh-Ac[C14] (not fully specified)
T32 chain: PLXXL

[23] = target: T33, Ac-P-NLys-R˜LTA-Ahxh-Hynic (not fully specified)
T33 chain: PXRLTA

[24] = target: T34, Ac-NGlu-PLG˜Hphe-YL-Ahxh-Ac[C14] (not fully specified)
T34 chain: XPLGXYL

Ac-P-Cit-G˜Hphe-LQ-Hynic = target: T35, Ac-P-Cit-G˜Hphe-LQ-Hynic (not fully specified)
T35 chain: PXGXLQ

[25] = target: T36, Ac-P-Cit-G˜Aib-LA-Ahxh-Hynic (not fully specified)
T36 chain: PXGXLA

[26] = target: T37, Ac-Csa-PLG˜Hphe-YL-Ambh-Hynic (not fully specified)
T37 chain: XPLGXYL

[27] = target: T38, Ac-PLG˜Hphe-OLR-Ahxh-Hynic
T38 chain: PLGXXLR

[28] = target: T39, Ac-Inp-Cit-G˜Hphe-LA-Ahxh-Hynic (not fully specified)
T39 chain: XXGXLA

Ac-PLG-LYV-Ahxh-Ac[C14] = target: T40, Ac-PLG-LYV-Ahxh-Ac[C14]
T40 chain: PLGLYV

[29] = target: T41, Ac-P-Cit-G˜Nle-LA-Ahxh-Hynic (not fully specified)
T41 chain: PXGXLA

[30] = target: T42, Ac-P-Cha-G˜LL-Ahxh-Ac[C14] (not fully specified)
T42 chain: PXGLL

[31] = target: T43, Ac-P-Cit-G˜Igl-LA-Ahxh-Hynic (not fully specified)
T43 chain: PXGXLA

Ac-PRR˜LTA-Ahxh-Hynic = target: T44, Ac-PRR˜LTA-Ahxh-Hynic
T44 chain: PRRLTA

Ac-PLG˜LYS-Ahxh-Ac[C14] = target: T45, Ac-PLG˜LYS-Ahxh-Ac[C14] (not fully specified)
T45 chain: PLGLYS

Suc-PLG˜LYT-Ahxh-Hynic = target: T46, Suc-PLG˜LYT-Ahxh-Hynic
T46 chain: PLGLYT

Ac-PLG˜LYL-Ahxh-Hynic = target: T47, Ac-PLG˜LYL-Ahxh-Hynic (not fully specified)
T47 chain: PLGLYL

[32] = target: T48, Ac-PLG˜Hphe-RL-Ahxh-Hynic
T48 chain: PLGXRL

[33] = target: T49, Ac-PL-Sar˜LL-Ahxh-Ac[C14] (not fully specified)
T49 chain: PLXLL

Ac-PLG˜LWA-Ahxh-Hynic = target: T50, Ac-PLG˜LWA-Ahxh-Hynic (not fully specified)
T50 chain: PLGLWA

[34] = target: T51, Ac-P-NMeArg-R˜LTA-Ambh-Hynic (not fully specified)
T51 chain: PRRLTA

B1: human MMP-9 (protein)
chain: MRTPRCGVPDLGRFQTFEGDLKWHHHNITYWIQNYSEDLPRAVIDDAFARAFALWSAVTPLTFTRVYSRDADIVIQFGVAEHGDGYPFDGKDGLLAHAFPPGPGIQGDAHFDDDELWSLGKGVVVPTRFGNADGAACHFPFIFEGRSYSACTTDGRSDGLPWCSTTANYDTDDRFGFCPSERLYTQDGNADGKPCQFPFIFQGQSYSACTTDGRSDGYRWCATTANYDRDKLFGFCPTRADSTVMGGNSAGELCVFPFTFLGKEYSTCTSEGRGDGRLWCATTSNFDSDKKWGFCPDQGYSLFLVAAHEFGHALGLDHSSVPEALMYPMYRFTEGPPLHKDDVNGIRHLYGPRPEPEPRPPTTTTPQPTAPPTVCPTGPPTVHPSERPTAGPTGPPSAGPTGPPTAGPSTATTVPLSPVDDACNVNIFDAIAEIGNQLYLFKDGKYWRFSEGRGSRPQGPFLIADKWPALPRKLDSVFEERLSKKLFFFSGRQVWVYTGASVLGPRRLDKLGLGADVAQVTGALRSGRGKMLLFSGRRLWRFDVKAQMVDPRSASEVDRMFPGVPLDTHDVFQYREKAYFCQDRFYWRVSSRSELNQVDQVGYVTYDILQCPED
B1 gave a Kcat/Km (Ac-VRW˜LTA-Ahxh-Hynic) of 29900 M⁻¹ s⁻¹, a Kcat/Km [1] of 1880 M⁻¹ s⁻¹ and a Kcat/Km [2] of 187000 M⁻¹ s⁻¹. It also gave a Kcat/Km [3] of 11400 M⁻¹ s⁻¹, a Kcat/Km [4] of 201000 M⁻¹ s⁻¹ and a Kcat/Km [5] of 55000 M⁻¹ s⁻¹. The Kcat/Km [6] was 33800 M⁻¹ s⁻¹, the Kcat/Km [7] was over 500000 M⁻¹ s⁻¹ and the Kcat/Km [8] was 190000 M⁻¹ s⁻¹. The Kcat/Km (Ac-PLG˜LY-Ahxh-Ac[C14]) was 336000 M⁻¹ s⁻¹, the Kcat/Km (Ac-PL-DAla˜LL-Ahxh-Hynic) was 0 M⁻¹ s⁻¹ and the Kcat/Km (Ac-PLG˜LOL-Ahxh-Hynic) was 39400 M⁻¹ s⁻¹. It also gave a Kcat/Km (Ac-PLG˜LYT-Ahxh-Ac[C14]) of over 500000 M⁻¹ s⁻¹, a Kcat/Km (Ac-PLG˜L-Cha-Ahxh-Hynic) of 147000 M⁻¹ s⁻¹ and a Kcat/Km [9] of 243000 M⁻¹ s⁻¹. For the same protein, the Kcat/Km (Ac-PLG˜LHL-Ahxh-Hynic) was 156000 M⁻¹ s⁻¹, the Kcat/Km [10] was 264000 M⁻¹ s⁻¹ and the Kcat/Km [11] was 0 M⁻¹ s⁻¹. For the same protein, the Kcat/Km (Ac-PLG˜LLA-Ahxh-Hynic) was 226000 M⁻¹ s⁻¹, the Kcat/Km [12] was 195000 M⁻¹ s⁻¹ and the Kcat/Km [13] was 33300 M⁻¹ s⁻¹. It also gave a Kcat/Km [14] of 396000 M⁻¹ s⁻¹, a Kcat/Km [15] of over 100000 M⁻¹ s⁻¹ and a Kcat/Km [16] of 14100 M⁻¹ s⁻¹. It also gave a Kcat/Km (Ac-POG˜Hphe-L-Ambh-Hynic) of 22000 M⁻¹ s⁻¹, a Kcat/Km [17] of over 500000 M⁻¹ s⁻¹ and a Kcat/Km [18] of over 500000 M⁻¹ s⁻¹. The Kcat/Km [19] was 57700 M⁻¹ s⁻¹, the Kcat/Km [20] was 103000 M⁻¹ s⁻¹ and the Kcat/Km [21] was 20600 M⁻¹ s⁻¹. The Kcat/Km (Ac-PLG˜LL-Ahxh-Ac[C14]) was 134000 M⁻¹ s⁻¹, the Kcat/Km [22] was 289000 M⁻¹ s⁻¹ and the Kcat/Km [23] was 0 M⁻¹ s⁻¹. The Kcat/Km [24] was 213000 M⁻¹ s⁻¹, the Kcat/Km (Ac-P-Cit-G˜Hphe-LQ-Hynic) was 79600 M⁻¹ s⁻¹ and the Kcat/Km [25] was 772 M⁻¹ s⁻¹. For the same protein, the Kcat/Km [26] was 41600 M⁻¹ s⁻¹, the Kcat/Km [27] was 22100 M⁻¹ s⁻¹ and the Kcat/Km [28] was 1650 M⁻¹ s⁻¹. It also gave a Kcat/Km (Ac-PLG-LYV-Ahxh-Ac[C14]) of over 500000 M⁻¹ s⁻¹, a Kcat/Km [29] of 116000 M⁻¹ s⁻¹ and a Kcat/Km [30] of 180000 M⁻¹ s⁻¹. The Kcat/Km [31] was 0 M⁻¹ s⁻¹, the Kcat/Km (Ac-PRR˜LTA-Ahxh-Hynic) was 33500 M⁻¹ s⁻¹ and the Kcat/Km (Ac-PLG˜LYS-Ahxh-Ac[C14]) was over 500000 M⁻¹ s⁻¹. It also gave a Kcat/Km (Suc-PLG˜LYT-Ahxh-Hynic) of 81000 M⁻¹ s⁻¹, a Kcat/Km (Ac-PLG˜LYL-Ahxh-Hynic) of 95000 M⁻¹ s⁻¹ and a Kcat/Km [32] of 168000 M⁻¹ s⁻¹. For the same protein, the Kcat/Km [33] was 143000 M⁻¹ s⁻¹, the Kcat/Km (Ac-PLG˜LWA-Ahxh-Hynic) was over 500000 M⁻¹ s⁻¹ and the Kcat/Km [34] was 792 M⁻¹ s⁻¹.
